Measurements as given in paper PMC12489045, “Non-coding RNA mediates the defense-associated reverse transcriptase (DRT) anti-phage oligomerization transition” (The EMBO Journal, 2025).

What was measured:
[1] = target: DRT9 reverse transcriptase (DRT9-RT protein), wild type, in complex with its ncRNA (Escherichia coli); assay: cryo-EM structure; DRT9 RT-ncRNA complex without dNTPs, 2 mg/ml; 3.49 Å
[2] = target: DRT9 reverse transcriptase (DRT9-RT protein), wild type, in complex with its ncRNA (Escherichia coli); assay: cryo-EM structure; DRT9 RT-ncRNA complex (2 mg/ml) with 1 mM of each dNTP, 25 mM Tris-HCl pH 7.5, 150 mM NaCl, 5 mM MgCl2, room temperature 1 h; 3.46 Å

DRT9 reverse transcriptase (DRT9-RT protein), wild type, in complex with its ncRNA (enzyme)
fraction of particles that are hexamers (without dNTPs) [1]: 13%
stoichiometry N [1]: 4
stoichiometry N [2]: 6
